Where a chain is given by its changes, count along the chain named.

This note sets out measurements from US20190262327A1 (AstraZeneca / MedImmune, published 2019).

The labels stand for the following.
B1: Abet0370 scFv (scFv, V domains shown, not shown: small tags and cut ends)
VH: EVQLLESGGGLVQPGGSLRLSCAASGFHFPMSAMWWVRQAPGKGLEWVSVIGETPERQAYADSVKGRFTISRDNSKSTLYLQMNSLRAEDTAVYYCAREWMDHSRPYYYYGMDVWGQGTLVTVSS
VL: SYELTQPPSVSVSPGQTASITCTTPHFNSKFASWYQQKPGQSPVLVIYRDDKRPSGIPERFSASNSGHTATLTISGTQAMDEADYYCQAQDSTTRVFGGGTRLTVL
notes: Purified scFv expressed in E. coli
B2: Abet0372 scFv (scFv, V domains shown, not shown: small tags and cut ends)
VH: EVQLLESGGGLVQPGGSLRLSCAASSDMFNIETMWWVRQAPGKGLEWVSVIGKGMNNVSYADSVKGRFTISRDNSKNTLYLQMNSLRAEDTAVYYCAREWMDHSRPYYYYGMDVWGQGTLVTVSS
VL: SYELTQPPSVSVSPGQTASITCSGHNLEDKFASWYQQKPGQSPVLVIYRDDKRPSGIPERFSASNSGHTATLTISGTQATDEADYYCSSQDTVTRVFGGGTKLTVL
notes: as for B1
B3: Abet0342 scFv (scFv, V domains shown, not shown: small tags and cut ends)
VH: EVQLLESGGGLVQPGGSLRLSCAASGFDFRRSVMWWVRQAPGKGLEWVSVIGAQTQNKAYADSVKGRFTISRDNSKNTLYLQMNSLRAEDTAVYYCAREWMDHSRPYYYYGMDVWGQGTLVTVSS
VL: B2 VL with H68D, T80M, S88Q, S89A, T92S, V93T
notes: as for B1
B4: Abet0344 scFv (scFv, V domains shown, not shown: small tags and cut ends)
VH: EVQLLESGGGLVQPGGSLSLSCAASGFTFSVYTMWWVRQAPGKGLEWVSVIGGNETRKAYADSVKGRFTISRDNSKNRLYLQMNSLRAEDTAVYYCAREWMDHSRPYYYYGMDVWGQGTLVTVSS
VL: B2 VL with S1Q, Y2S, E3V, P39S, S88A, S89T, T92N, V93F
notes: as for B1
B5: Abet0319 scFv (scFv, V domains shown, not shown: small tags and cut ends)
VH: EVQLLESGGGLVQPGGSLRLSCAASVSVYNKDTMWWVRQAPGKGLEWVSVIGSSGGTTVYADSVKGRFTISRDNSKNTLYLQMNSLRAEDTAVYYCAREWMDHSRPYYYYGMDVWGQGTLVTVSS
VL: B2 VL with L27I, E28M, F31W, A32V, Q41R, V44A
notes: as for B1
B6: Abet0368 scFv (scFv, V domains shown, not shown: small tags and cut ends)
VH: B3 VH with R30G, R31P, V33P, A53K, Q54D, K58S, A59T, N77D, R87K
VL: B2 VL with A32T, P39S, T77A
notes: as for B1
B7: Abet0332 scFv (scFv, V domains shown, not shown: small tags and cut ends)
VH: EVQLLESGGGLVQPGESLRLSCAASSDSWHTDIMWWVRQAPGKRLEWVSVIGNSNKKIAYADSVKGRFTISRDNSKNTLYLQMNSLRAEDTAVYYCAREWMDHSRPYYYYGMDVWGQGTLVTVSS
VL: SYELTQPPSVSVSPGQTASITCSGHNIGAKWVSWYQQKPGQSPILVIYRDDKRPSGIPERFSASNSGHTATLTISGTQATDEADYYCQAQGQVTRSFGGGTKLTVL
notes: as for B1

In one experiment the target is T1, biotinylated synthetic human Amyloid beta 1-42 peptide (human, UniProt P05067 672-713, biotinylated (N-terminal biotin in Example 4)).
T1 construct: domain: Amyloid beta 1-42 peptide; Numbers 1-42 count on the Amyloid beta peptide, not on APP; also called biotinylated human Amyloid beta 1-42; N-terminal biotin Abeta 1-42
T1 sequence (P05067 672-713 limits assumed): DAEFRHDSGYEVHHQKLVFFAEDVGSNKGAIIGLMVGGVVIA
The experiment can be described thus: SPR (ProteOn); biotinylated peptide on streptavidin chip, scFv in solution. The method, then:
These experiments were performed essentially as described by Karlsson et al. (Karlsson et al., 1991).
The chip surface was regenerated between cycles by a single 60 second injection of 10 mM Glycine pH 2.0 to remove scFv bound to the peptide.
Each scFv at 100-200 nM was sequentially passed over the peptide surface for a sufficient amount of time to observe sensorgrams that could be fitted to an appropriate binding model with confidence. An irrelevant scFv blank was subtracted from the main dataset to reduce the impact of any buffer artefacts or non-specific binding effects. An appropriate binding model was then fitted to the data.
In turn, B1 returned a Kd of 0.651 nM, a koff of 7.76e-05 s⁻¹ and an on-rate (kon) of 119000 M⁻¹ s⁻¹.

Turning to B2, binding was put at a Kd of 0.724 nM, the koff was found to be 0.000176 s⁻¹ and the kon was 243000 M⁻¹ s⁻¹.

In turn, B3 registered a Kd of 0.421 nM, a koff of 5.73e-05 s⁻¹ and a kon of 136000 M⁻¹ s⁻¹.

In turn, B4 returned a Kd of 0.739 nM, a koff of 5.73e-05 s⁻¹ and a kon of 77500 M⁻¹ s⁻¹.

In turn, B5 yielded a Kd of 0.391 nM, a koff of 0.000129 s⁻¹ and a kon of 329000 M⁻¹ s⁻¹.

For B6, the Kd came out at 0.482 nM, the koff was 9e-05 s⁻¹ and the kon was 187000 M⁻¹ s⁻¹.

Molecule B7 showed a Kd of 0.391 nM, a koff of 0.000129 s⁻¹ and a kon of 329000 M⁻¹ s⁻¹.

The target of a further experiment is T1, biotinylated synthetic human Amyloid …. In words: HTRF epitope competition; purified scFv titrated; competitor Abet0144-GL IgG1-TM. The procedure:
(§1) Two thousand and twenty four scFv chosen at random from selection rounds 3 and 4 of the targeted mutagenesis approach described in section 1.2 were expressed in bacteria to produce unpurified periplasmic scFv.
(§2) One thousand six hundred and seventy two scFv, randomly selected from selection rounds 9 to 11, were screened in an epitope competition assay as described in section 1.3.
(§3) Where the assay was performed more than once, the absolute range of IC₅₀ values is provided.
With B1, the IC50 stood at 0.76 nM.

With B2, the IC50 was determined as 0.38 nM. Against the preceding molecule, the IC50 is about 2-fold lower.

B3 gave an IC50 of 0.59 nM.

Regarding B4, the IC50 was determined as 0.77 nM.

B5 returned an IC50 of 0.68 nM. This IC50 and that of the molecule before are within 1.5-fold of each other.

B6 had an IC50 of 0.55 nM.

B7 registered an IC50 of 0.91 nM.

A further experiment shares this target. The experiment can be described thus: HTRF epitope competition; purified scFv titrated; competitor Abet0144-GL IgG1-TM; range of repeats. The procedure: as §1, §2, §3
For the molecule B2, the IC50 lay in the range of 0.26 to 0.49 nM.

B5 displayed an IC50 of 0.52 to 0.76 nM.
